{"source": "paper PMC7612939", "molecular_target": "TCRβ chain of the 5c.c7 TCR (Vβ3) (mouse (T-cells of 5c.c7 TCR transgenic mice))", "experiment": "FRET or BRET", "data": [{"substance": "CD3ε (from UniProt P22646 22-189) (natural protein)", "values": [{"measurement": "FRET yield", "value": 25, "unit": "%"}]}]}
